Columns and labels:
[1] = target: T1, cynomolgus monkey pIgR extracellular domain (cynomolgus monkey, UniProt A0A2K5WMU9 19-638); assay: SPR, VHH captured by anti-Fc, ECD analyte
T1 construct: extracellular domain
Procedure: (§1) In an assay, two flow cells of the SPR were used, in which the flow cell 1 ran the buffer reference, and the flow cell 2 ran the analyte. […] The HBSP (GE) buffer was followed at a flow rate of 30 μL/min. Then, the VHHs were captured on the anti-human Fc protein surface at 0.5 ug/ml (˜200-300 RU) on the flow cell 2. The running buffer was changed to HBSP with 100 ug/ml BSA after the capture. Next, the pIgR extracellular domains were used as analyte and loaded in a series of concentrations, starting at 30 nM with further 3-fold dilution series.
(§2) The extracellular domains were prepared as follows: cynomolgus monkey and rat extracellular domains were produced and characterized in house; mouse and human pIgR extracellular domains were purchased from R&D Systems (Cat #2800-PG-050 & 2717-PG-050 respectively). The pIgR extracellular domains were injected from low to high concentration using a single-cycle kinetics method. The off-rate was monitored at 30 minutes after the last or highest concentration injection. The reference run was completed under the same conditions except that the pIgR injection was replaced by buffer injection.
(§3) The raw data were processed by subtracting two sets of reference data from the response data: (1) reference flow cell 1 subtracted from sample flow cell 2; and (2) buffer blank run subtracted from experimental run. The processed data at all concentrations for each VHH were globally fit to a 1:1 simple Langmuir binding model to extract estimates of the kinetic constants (kₒₙ, koff) and affinity constants (KD).

[2] = target: T2, human pIgR extracellular domain (ECD) (human, UniProt P01833 19-638); assay: SPR, VHH captured by anti-Fc, ECD analyte
T2 construct: Bought from R&D Systems (Cat 2717-PG-050); also called hpIgR ECD
T2 sequence (P01833 other isoform, or with tags, fused parts or gaps): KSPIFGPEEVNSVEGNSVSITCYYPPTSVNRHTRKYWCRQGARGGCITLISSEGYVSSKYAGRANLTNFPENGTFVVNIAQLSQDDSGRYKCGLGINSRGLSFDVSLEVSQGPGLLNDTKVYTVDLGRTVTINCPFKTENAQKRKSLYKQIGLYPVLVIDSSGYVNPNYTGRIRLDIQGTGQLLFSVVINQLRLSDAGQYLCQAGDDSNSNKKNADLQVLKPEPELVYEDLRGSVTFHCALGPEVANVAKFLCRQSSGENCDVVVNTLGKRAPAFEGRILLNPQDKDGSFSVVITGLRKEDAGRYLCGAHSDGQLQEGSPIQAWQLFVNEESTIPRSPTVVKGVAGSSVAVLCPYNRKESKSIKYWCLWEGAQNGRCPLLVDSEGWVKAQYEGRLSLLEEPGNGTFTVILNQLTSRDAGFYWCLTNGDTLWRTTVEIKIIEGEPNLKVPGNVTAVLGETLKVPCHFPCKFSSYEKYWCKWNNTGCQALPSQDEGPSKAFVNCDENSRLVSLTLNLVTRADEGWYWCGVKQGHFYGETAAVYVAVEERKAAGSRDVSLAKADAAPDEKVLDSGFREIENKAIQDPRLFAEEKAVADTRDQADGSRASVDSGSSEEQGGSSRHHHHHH
Procedure: as §1, §2, §3

T1 sequence (A0A2K5WMU9 entry or part of it): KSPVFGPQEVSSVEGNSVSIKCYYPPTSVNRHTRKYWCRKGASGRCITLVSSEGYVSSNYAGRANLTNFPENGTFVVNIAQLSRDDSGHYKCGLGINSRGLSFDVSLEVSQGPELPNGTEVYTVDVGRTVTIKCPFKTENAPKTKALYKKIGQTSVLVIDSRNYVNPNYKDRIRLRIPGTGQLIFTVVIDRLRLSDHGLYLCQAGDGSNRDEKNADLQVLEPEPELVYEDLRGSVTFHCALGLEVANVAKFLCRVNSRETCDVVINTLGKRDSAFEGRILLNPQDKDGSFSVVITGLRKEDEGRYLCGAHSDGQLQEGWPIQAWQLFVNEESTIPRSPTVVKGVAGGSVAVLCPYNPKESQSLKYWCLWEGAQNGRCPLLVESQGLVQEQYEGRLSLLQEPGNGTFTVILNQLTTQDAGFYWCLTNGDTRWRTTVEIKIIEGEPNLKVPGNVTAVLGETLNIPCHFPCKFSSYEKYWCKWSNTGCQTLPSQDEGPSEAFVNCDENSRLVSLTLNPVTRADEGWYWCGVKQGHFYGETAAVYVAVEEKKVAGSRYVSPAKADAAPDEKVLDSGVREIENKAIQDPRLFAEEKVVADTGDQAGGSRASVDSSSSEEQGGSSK

Binder	Kd [1] [nM]	Kd [2] [nM]
01C05R3LS VHH Mono-Fc (Fc fusion) EVQLVESGGGLVQAGGSLRLSCAASGRTINTYVMGWFRQAPGKEREFVARIDWSGSSTDYADSVKGRFTISRDNAKNTVYLQMNSLKPEDTAVYYCAGSAYYSGYVTHRDFGSWGQGTLVTVSSSPAPELLGGPSVFLFPPKPKDTLMISRTPEVTCVVVDVSHEDPEVKFNWYVDGVEVHNAKTKPREEQYNSTYRVVSVLTVLHQDWLNGKEYKCKVSNKALPAPIEKTISKAKGQPREPQVYTKPPSREEMTKNQVSLSCLVKGFYPSDIAVEWESNGQPENNYKTTVPVLDSDGSFRLASYLTVDKSRWQQGNVFSCSVMHEALHNHYTQKSLSLSPGK	84.9	5.77
01D07R3LS VHH Mono-Fc (Fc fusion) QVQLVESGGGLVQAGGSLRLSCAASGRTINTYVMGWFRQAPGKEREFVARIDWSGSSTDYADSVKGRFTISRDNAKNTVYLQMNSLKPEDTAVYYCAGSAYYSGYVTHRDFGSWGQGTLVTVSSSPAPELLGGPSVFLFPPKPKDTLMISRTPEVTCVVVDVSHEDPEVKFNWYVDGVEVHNAKTKPREEQYNSTYRVVSVLTVLHQDWLNGKEYKCKVSNKALPAPIEKTISKAKGQPREPQVYTKPPSREEMTKNQVSLSCLVKGFYPSDIAVEWESNGQPENNYKTTVPVLDSDGSFRLASYLTVDKSRWQQGNVFSCSVMHEALHNHYTQKSLSLSPGK	103	9.78
01H11R3LS VHH Mono-Fc (Fc fusion) QVQLVESGGGLVQAGGSLRLSCAASGRTINGYVMGWFRQAPGKEREFVARIDWSGSSTDYADSVKGRFTISRDNAKTTVYLQTNSLKPEDTAVYYCAGSAYYSGYVTHRDFGSWGQGTQVTVSSSPAPELLGGPSVFLFPPKPKDTLMISRTPEVTCVVVDVSHEDPEVKFNWYVDGVEVHNAKTKPREEQYNSTYRVVSVLTVLHQDWLNGKEYKCKVSNKALPAPIEKTISKAKGQPREPQVYTKPPSREEMTKNQVSLSCLVKGFYPSDIAVEWESNGQPENNYKTTVPVLDSDGSFRLASYLTVDKSRWQQGNVFSCSVMHEALHNHYTQKSLSLSPGK	252	8.42
01B10R3LS VHH Mono-Fc (Fc fusion) QVQLVESGGGLVQAGGSLRLSCAASGRTIYGYVMGWFRQAPGKEREFVARIDWSGSSTDYADSVKGRFTISRDNAKNTVYLQMNSLKPEDTAVYYCAGSAYYSGYVTHRDFGSWGQGTQVTVSSSPAPELLGGPSVFLFPPKPKDTLMISRTPEVTCVVVDVSHEDPEVKFNWYVDGVEVHNAKTKPREEQYNSTYRVVSVLTVLHQDWLNGKEYKCKVSNKALPAPIEKTISKAKGQPREPQVYTKPPSREEMTKNQVSLSCLVKGFYPSDIAVEWESNGQPENNYKTTVPVLDSDGSFRLASYLTVDKSRWQQGNVFSCSVMHEALHNHYTQKSLSLSPGK	192	38
01G09R2 VHH Mono-Fc (Fc fusion) EVQLVESGGGLVQAGGSLRLSCAASGRTINTYVMGWFRQAPGKEREFVARIDWSGSSTDYADSAKGRFTISRDNAKNTVYLQMNSLKPEDTAVYYCAGSAYYSGYVTHRDFGSWGQGTLVTVSSSPAPELLGGPSVFLFPPKPKDTLMISRTPEVTCVVVDVSHEDPEVKFNWYVDGVEVHNAKTKPREEQYNSTYRVVSVLTVLHQDWLNGKEYKCKVSNKALPAPIEKTISKAKGQPREPQVYTKPPSREEMTKNQVSLSCLVKGFYPSDIAVEWESNGQPENNYKTTVPVLDSDGSFRLASYLTVDKSRWQQGNVFSCSVMHEALHNHYTQKSLSLSPGK	106	6.58
03G05R3 VHH Mono-Fc (Fc fusion) EVQLVESGGGLVQAGDSLRLSCAASGRALSFNTYAMAWFRQAPGKEREFVASITYNGGSTYYADSVKGRFTVTRDNGKNTVTLRMNSLKPDDTAVYYCASAQYWRSGTSFPANYWGQGTQVTVSSSPAPELLGGPSVFLFPPKPKDTLMISRTPEVTCVVVDVSHEDPEVKFNWYVDGVEVHNAKTKPREEQYNSTYRVVSVLTVLHQDWLNGKEYKCKVSNKALPAPIEKTISKAKGQPREPQVYTKPPSREEMTKNQVSLSCLVKGFYPSDIAVEWESNGQPENNYKTTVPVLDSDGSFRLASYLTVDKSRWQQGNVFSCSVMHEALHNHYTQKSLSLSPGK	30.1	3.7
01F04R3 VHH Mono-Fc (Fc fusion) QVQLVESGGGLVQAGDSLRLSCAASGRALSFNTYAMAWFRQAPGKEREFVASITYNGGSTYYADSVRGRFTVTRDSGKNTVTLRMNSLKPDDTAVYYCASAQYWRSGTSFPANYWGQGTLVTVSSSPAPELLGGPSVFLFPPKPKDTLMISRTPEVTCVVVDVSHEDPEVKFNWYVDGVEVHNAKTKPREEQYNSTYRVVSVLTVLHQDWLNGKEYKCKVSNKALPAPIEKTISKAKGQPREPQVYTKPPSREEMTKNQVSLSCLVKGFYPSDIAVEWESNGQPENNYKTTVPVLDSDGSFRLASYLTVDKSRWQQGNVFSCSVMHEALHNHYTQKSLSLSPGK	30.9	5.92
01D06R2 VHH Mono-Fc (Fc fusion) QVQLVESGGGLVQAGDSLRLSCAASGRTLSFDTYAMAWFRQAPGKEREFVASIDWNGVNTYYADSVKGRFTVTRDNTKNTVTLRMNSLKTDDTAVYYCAAAQYYRSGTSFPANSWGQGTQVTVSSSPAPELLGGPSVFLFPPKPKDTLMISRTPEVTCVVVDVSHEDPEVKFNWYVDGVEVHNAKTKPREEQYNSTYRVVSVLTVLHQDWLNGKEYKCKVSNKALPAPIEKTISKAKGQPREPQVYTKPPSREEMTKNQVSLSCLVKGFYPSDIAVEWESNGQPENNYKTTVPVLDSDGSFRLASYLTVDKSRWQQGNVFSCSVMHEALHNHYTQKSLSLSPGK	14.4	1.44
01C04R3 VHH Mono-Fc (Fc fusion) QVQLVESGGGLVQAGDSLRLSCAASGRALSFNTYAMAWFRQAPGKEREFVASITYNGGSTYYADSVKGRFTVTRDNGKDTVTLRMNSLKPDDTAVYYCASAQYWRSGTSFPANYWGQGTLVTVSSSPAPELLGGPSVFLFPPKPKDTLMISRTPEVTCVVVDVSHEDPEVKFNWYVDGVEVHNAKTKPREEQYNSTYRVVSVLTVLHQDWLNGKEYKCKVSNKALPAPIEKTISKAKGQPREPQVYTKPPSREEMTKNQVSLSCLVKGFYPSDIAVEWESNGQPENNYKTTVPVLDSDGSFRLASYLTVDKSRWQQGNVFSCSVMHEALHNHYTQKSLSLSPGK	46.3	3.09
01E10R3 VHH Mono-Fc (Fc fusion) QVQLVESGGGLVQSGGSLRLSCAASGRTFSDYAMGWFRQAPGKERELVAAITWNGGSTYYADSVKGRFTISRDNAKNTVDLQMNSLKPEDTAVYYCAADPLNSDSAGTYDYWGQGTLVTVSSSPAPELLGGPSVFLFPPKPKDTLMISRTPEVTCVVVDVSHEDPEVKFNWYVDGVEVHNAKTKPREEQYNSTYRVVSVLTVLHQDWLNGKEYKCKVSNKALPAPIEKTISKAKGQPREPQVYTKPPSREEMTKNQVSLSCLVKGFYPSDIAVEWESNGQPENNYKTTVPVLDSDGSFRLASYLTVDKSRWQQGNVFSCSVMHEALHNHYTQKSLSLSPGK	23.2	1.39
03C10R3 VHH Mono-Fc (Fc fusion) QVQLVESGGGLVQRGGSLRLSCAASGRSLGFDTYAMGWFRQAPGKEREFVASIDWNGGNTYYADSVKGRFTISRDNAKNTVNLRMNSLKPDDTAAYYCAAARYYTSGTYFPANYWGRGTLVTVSSSPAPELLGGPSVFLFPPKPKDTLMISRTPEVTCVVVDVSHEDPEVKFNWYVDGVEVHNAKTKPREEQYNSTYRVVSVLTVLHQDWLNGKEYKCKVSNKALPAPIEKTISKAKGQPREPQVYTKPPSREEMTKNQVSLSCLVKGFYPSDIAVEWESNGQPENNYKTTVPVLDSDGSFRLASYLTVDKSRWQQGNVFSCSVMHEALHNHYTQKSLSLSPGK	17.5	1.67
03H05R3 VHH Mono-Fc (Fc fusion) QVQLVESGGGLVQAGGSLSLSCAASGRSLSFDTYAMSWFRQAPGKEREFVASIDWNGGSTSYADSMKGRFTISRDNAKNTVNLRIRSLKPDDTAVYFCASARYYIGGTYFPANYWGQGTQVTVSSSPAPELLGGPSVFLFPPKPKDTLMISRTPEVTCVVVDVSHEDPEVKFNWYVDGVEVHNAKTKPREEQYNSTYRVVSVLTVLHQDWLNGKEYKCKVSNKALPAPIEKTISKAKGQPREPQVYTKPPSREEMTKNQVSLSCLVKGFYPSDIAVEWESNGQPENNYKTTVPVLDSDGSFRLASYLTVDKSRWQQGNVFSCSVMHEALHNHYTQKSLSLSPGK	108	2.93
02G03R3 VHH Mono-Fc (Fc fusion) EVQLVESGGGLVQAGGSLRLSCAASGMPDNIFSIKTMGWYRQAPGKERELVAAITSGGSTNYGDSVKDRFTISRDRIENTVNLEMNNLKPEDTAVYTCHADLTYIRFQDMEYWGKGTQVTVSSSPAPELLGGPSVFLFPPKPKDTLMISRTPEVTCVVVDVSHEDPEVKFNWYVDGVEVHNAKTKPREEQYNSTYRVVSVLTVLHQDWLNGKEYKCKVSNKALPAPIEKTISKAKGQPREPQVYTKPPSREEMTKNQVSLSCLVKGFYPSDIAVEWESNGQPENNYKTTVPVLDSDGSFRLASYLTVDKSRWQQGNVFSCSVMHEALHNHYTQKSLSLSPGK	3.99	1.48

From patent US20220112276A1 (Janssen / Centocor, published 2022)
